Patent US12607633B2 (priority 2016, dated 2026)
“Also recorded” adds a separate entry of the source.

Assays:
[1] = molecular target: VEEV nsP2 protease cleavage of TRIM14 (Venezuelan equine encephalitis virus, UniProt P27282); format: cell-based
[2] = test system: VEEV; format: cell-based, Venezuelan equine encephalitis virus (VEEV)
[3] = molecular target: ZIKV ns2B-ns3 protease (Zika virus, UniProt A0A024B7W1, C1582S/C1645S/R1467A/R1531G); format: biochemical
[4] = molecular target: T1, VEEV nsP2 cysteine protease (Venezuelan equine encephalitis virus, UniProt P27282); details: pH 7
[5] = molecular target: EEEV nsP2 cysteine protease (Eastern equine encephalitis virus, UniProt Q4QXJ8); format: biochemical
[6] = molecular target: T1, VEEV nsP2 cysteine protease
[7] = molecular target: CHIKV nsP2 cysteine protease (Chikungunya virus, UniProt Q8JUX6, A1139V/C1177Y/S1178N)
[8] = molecular target: WEEV nsP2 cysteine protease (Western equine encephalitis virus, UniProt P13896)

Chain of VEEV nsP2 protease cleavage of TRIM14 (P27282 536-1329 limits assumed): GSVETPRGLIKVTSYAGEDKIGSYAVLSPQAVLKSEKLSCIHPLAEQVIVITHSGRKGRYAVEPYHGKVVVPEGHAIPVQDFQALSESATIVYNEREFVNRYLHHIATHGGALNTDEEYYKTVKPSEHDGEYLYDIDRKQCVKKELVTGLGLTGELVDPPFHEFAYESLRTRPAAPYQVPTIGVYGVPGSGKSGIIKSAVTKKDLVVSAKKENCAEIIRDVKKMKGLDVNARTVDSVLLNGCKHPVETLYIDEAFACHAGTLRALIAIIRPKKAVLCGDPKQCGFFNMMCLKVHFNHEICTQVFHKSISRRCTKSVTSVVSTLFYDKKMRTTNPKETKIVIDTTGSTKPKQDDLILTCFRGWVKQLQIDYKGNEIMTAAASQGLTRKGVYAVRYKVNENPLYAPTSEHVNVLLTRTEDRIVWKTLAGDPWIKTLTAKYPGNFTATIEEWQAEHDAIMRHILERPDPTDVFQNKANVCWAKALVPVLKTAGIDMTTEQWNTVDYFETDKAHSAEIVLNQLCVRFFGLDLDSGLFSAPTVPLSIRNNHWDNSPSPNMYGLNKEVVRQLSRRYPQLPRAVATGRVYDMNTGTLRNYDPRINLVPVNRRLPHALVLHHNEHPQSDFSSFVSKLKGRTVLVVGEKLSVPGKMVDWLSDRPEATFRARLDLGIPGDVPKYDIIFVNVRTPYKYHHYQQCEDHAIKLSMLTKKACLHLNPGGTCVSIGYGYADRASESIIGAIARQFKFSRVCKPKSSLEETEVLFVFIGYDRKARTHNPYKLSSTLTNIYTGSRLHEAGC

**Q.** What does the source list for CCCNC(=O)[C@H]1O[C@@H]1C(=O)N[C@H](C(=O)N1CCC[C@H]1C(=O)OC)[C@@H](C)CC [CA074 methyl ester]?
**A.** TRIM14 cleavage product (CP) in infected cell lysates (immunoblot) [1]: halted; also recorded: absent; also recorded: no longer present; VEEV titers / viral replication (plaque assays) [2]: halted viral replication; also recorded: decreased significantly

**Q.** For “CFP-FOXG1-YFP: CFP-YFP substrate, 21-residue human FOXG1 sequence RSTTSRAKLAFKR↓GARLTSTG ({CFP}-RSTTSRAKLAFKRGARLTSTG-{YFP})”, which “Proteases cutting the substrate: ZIKV ns2B-ns3 protease” value [3] is on record?
**A.** cleavage; also recorded: ZIKV ns2B-ns3 protease

**Q.** With “CFP-NT5M-YFP: CFP-YFP substrate, 34-residue human NT5M sequence MIRLGGWCARRLCSAAVPAGRR↓GAAGGLGLAGGR ({CFP}-MIRLGGWCARRLCSAAVPAGRRGAAGGLGLAGGR-{YFP}; cysteine pairing not given here)” as the compound, how does the “Proteases cutting the substrate: ZIKV ns2B-ns3 protease” value [3] read?
**A.** cleavage; also recorded: ZIKV ns2B-ns3 protease

**Q.** “CFP-SFRP1-YFP: CFP-YFP substrate, 25-residue human SFRP1 sequence MGIGRSEGGRR↓GAALGVLLALGAAL ({CFP}-MGIGRSEGGRRGAALGVLLALGAAL-{YFP})” was tested. Which “Proteases cutting the substrate: ZIKV ns2B-ns3 protease” value [3] did it give?
**A.** cleavage; also recorded: ZIKV ns2B-ns3 protease

**Q.** How did the “Proteases cutting the substrate: ZIKV ns2B-ns3 protease” value [3] turn out when “CFP-SFRP2-YFP: Uncleavable control CFP-YFP substrate, 34 residues MLQGPGSLLLLFLASHCCLGSARGLFLFGQPDFS ({CFP}-MLQGPGSLLLLFLASHCCLGSARGLFLFGQPDFS-{YFP}; cysteine pairing not given here)” was run?
**A.** Control, not cleaved by ZIKV

**Q.** With “CFP-SFRP4-YFP: Uncleavable control CFP-YFP substrate, 34 residues MFLSILVALCLWLHLALGVRGAPCEAVRIPMCRH ({CFP}-MFLSILVALCLWLHLALGVRGAPCEAVRIPMCRH-{YFP}; cysteine pairing not given here)” as the compound, how does the “Proteases cutting the substrate: ZIKV ns2B-ns3 protease” value [3] read?
**A.** Control, not cleaved by ZIKV

**Q.** For “CFP-TRIM14-YFP (SEQ ID NO: 4): CFP-YFP FRET substrate, 25 residues of human TRIM14 DCFATGRHYWEVDVQEAGA↓GWWVGA (DCFATGRHYWEVDVQEAGAGWWVGA)”, which Km [4] is on record?
**A.** 21 ± 2 µM

**Q.** What about the Vmax [4] of the same compound?
**A.** 0.056 ± 0.002 U/mg

**Q.** What about the “Extent of cleavage of TRIM14 substrate by EEEV nsP2 protease (SDS-PAGE)” value [5] of the same compound?
**A.** did not show significant amounts of cleavage

**Q.** And the “Proteases cutting the substrate: VEEV nsP2 cysteine protease” value [6]?
**A.** VEEV nsP2 cysteine protease

**Q.** And the “Extent of cleavage of TRIM14 substrate by CHIKV nsP2 protease (SDS-PAGE)” value [7]?
**A.** did not show evidence of significant cleavage

**Q.** What about the “Extent of cleavage of TRIM14 substrate by WEEV nsP2 protease (SDS-PAGE)” value [8] of the same compound?
**A.** did not show significant amounts of cleavage
